These results are taken from article PMC10287916, “MSH2-MSH3 promotes DNA end resection during homologous recombination and blocks polymerase theta-mediated end-joining through interaction with SMARCAD1 and EXO1” (Nucleic Acids Research, 2023).

Assay [1] addresses T1, MSH2-MSH3 (MutSβ), purified (human, UniProt P43246 1-934; P20585 1-1137).
T1 construct: MSH2, human, full length; MSH3, human, full length; Purified on a HisTrap HP column; also called MSH2-MSH3 heterodimer; source: Hi5 insect cells (baculovirus), purified (HisTrap HP, Superdex 200)
In words: co-IP; in vitro immunoprecipitation: purified first protein on antibody-conjugated Dynabead protein G, washed with buffer X, second purified protein added for 1 h; western blot. The following applies: both partners purified. Background: Immunoblotting shows a protein as a band on a membrane.

Assay [2] addresses T2, MSH2-MSH6 (MutSα), purified (human, UniProt P43246 1-934; P52701 1-1360).
T2 construct: MSH2, human, full length; MSH6, human, full length; source: Hi5 insect cells (baculovirus), purified (HiTrap Heparin HP, HiTrap Q HP, Superdex 200)
In words: native gel or EMSA; 4 μM or 8 μM SMARCAD1 incubated with 1 nM Cy5-labeled 40 bp homoduplex, GT mismatch or 58 bp flap DNA in buffer H with 1 mM ATP, then MSH2-MSH6 titrated, 5 min. The following applies: both partners purified. On the technique in general: Mobility shift assays separate free from complexed probe on a gel.

T1 sequence (P43246 whole entry, chain 1 of 2): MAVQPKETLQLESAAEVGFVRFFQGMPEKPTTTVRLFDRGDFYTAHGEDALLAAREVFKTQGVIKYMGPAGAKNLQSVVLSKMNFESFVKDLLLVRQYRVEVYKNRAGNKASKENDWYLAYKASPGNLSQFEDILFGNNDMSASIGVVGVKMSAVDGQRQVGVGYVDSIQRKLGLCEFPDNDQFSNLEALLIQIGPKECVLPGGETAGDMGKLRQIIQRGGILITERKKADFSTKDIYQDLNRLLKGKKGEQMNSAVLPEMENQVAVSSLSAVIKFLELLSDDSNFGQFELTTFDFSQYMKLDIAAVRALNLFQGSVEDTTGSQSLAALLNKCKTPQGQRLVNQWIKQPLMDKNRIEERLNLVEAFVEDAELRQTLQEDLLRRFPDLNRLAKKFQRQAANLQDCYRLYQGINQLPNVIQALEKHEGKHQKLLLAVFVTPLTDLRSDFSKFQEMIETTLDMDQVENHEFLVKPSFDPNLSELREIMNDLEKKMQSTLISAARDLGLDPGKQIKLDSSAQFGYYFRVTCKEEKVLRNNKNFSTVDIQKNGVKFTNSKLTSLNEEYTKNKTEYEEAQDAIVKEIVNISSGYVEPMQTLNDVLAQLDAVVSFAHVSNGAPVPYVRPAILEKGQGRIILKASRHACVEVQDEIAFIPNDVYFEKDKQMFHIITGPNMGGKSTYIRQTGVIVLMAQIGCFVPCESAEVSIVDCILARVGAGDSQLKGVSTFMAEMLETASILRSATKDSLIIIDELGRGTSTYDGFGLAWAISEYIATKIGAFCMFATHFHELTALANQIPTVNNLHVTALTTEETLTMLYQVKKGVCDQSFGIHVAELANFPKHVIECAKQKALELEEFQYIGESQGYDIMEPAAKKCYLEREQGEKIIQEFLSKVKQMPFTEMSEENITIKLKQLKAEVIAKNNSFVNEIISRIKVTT
T1 sequence (P20585 whole entry, chain 2 of 2): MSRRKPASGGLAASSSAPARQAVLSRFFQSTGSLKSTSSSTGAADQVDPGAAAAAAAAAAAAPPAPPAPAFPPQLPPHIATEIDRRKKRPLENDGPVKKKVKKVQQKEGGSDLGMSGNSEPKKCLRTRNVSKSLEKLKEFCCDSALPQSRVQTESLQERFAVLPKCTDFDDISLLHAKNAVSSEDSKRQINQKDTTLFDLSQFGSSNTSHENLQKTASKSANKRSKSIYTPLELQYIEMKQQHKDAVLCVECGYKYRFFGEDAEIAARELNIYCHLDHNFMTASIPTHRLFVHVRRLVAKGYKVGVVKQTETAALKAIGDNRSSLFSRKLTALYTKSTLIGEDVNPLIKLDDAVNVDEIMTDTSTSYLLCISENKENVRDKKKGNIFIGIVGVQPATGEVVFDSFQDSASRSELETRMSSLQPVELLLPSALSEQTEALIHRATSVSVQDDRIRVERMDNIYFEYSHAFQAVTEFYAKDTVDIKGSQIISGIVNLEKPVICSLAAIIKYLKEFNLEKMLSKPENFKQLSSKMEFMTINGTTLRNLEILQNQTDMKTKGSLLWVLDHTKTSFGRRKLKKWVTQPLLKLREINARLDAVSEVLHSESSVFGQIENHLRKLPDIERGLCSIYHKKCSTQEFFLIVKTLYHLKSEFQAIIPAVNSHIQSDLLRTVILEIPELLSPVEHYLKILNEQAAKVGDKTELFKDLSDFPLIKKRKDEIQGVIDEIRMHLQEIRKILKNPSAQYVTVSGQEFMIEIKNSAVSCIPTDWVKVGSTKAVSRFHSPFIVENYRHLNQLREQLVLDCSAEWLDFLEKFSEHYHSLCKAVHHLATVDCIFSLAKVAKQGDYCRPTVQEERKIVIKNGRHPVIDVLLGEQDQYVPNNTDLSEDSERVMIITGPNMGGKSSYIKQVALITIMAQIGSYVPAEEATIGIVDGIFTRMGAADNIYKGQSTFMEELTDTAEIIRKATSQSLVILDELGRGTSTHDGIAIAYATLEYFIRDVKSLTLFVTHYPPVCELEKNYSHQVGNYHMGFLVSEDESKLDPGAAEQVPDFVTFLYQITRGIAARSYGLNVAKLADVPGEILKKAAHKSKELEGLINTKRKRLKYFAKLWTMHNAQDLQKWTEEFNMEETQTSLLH
T2 sequence (P43246 whole entry, chain 1 of 2): as the sequence (P43246 whole entry, chain 1 of 2) above
T2 sequence (P52701 whole entry, chain 2 of 2): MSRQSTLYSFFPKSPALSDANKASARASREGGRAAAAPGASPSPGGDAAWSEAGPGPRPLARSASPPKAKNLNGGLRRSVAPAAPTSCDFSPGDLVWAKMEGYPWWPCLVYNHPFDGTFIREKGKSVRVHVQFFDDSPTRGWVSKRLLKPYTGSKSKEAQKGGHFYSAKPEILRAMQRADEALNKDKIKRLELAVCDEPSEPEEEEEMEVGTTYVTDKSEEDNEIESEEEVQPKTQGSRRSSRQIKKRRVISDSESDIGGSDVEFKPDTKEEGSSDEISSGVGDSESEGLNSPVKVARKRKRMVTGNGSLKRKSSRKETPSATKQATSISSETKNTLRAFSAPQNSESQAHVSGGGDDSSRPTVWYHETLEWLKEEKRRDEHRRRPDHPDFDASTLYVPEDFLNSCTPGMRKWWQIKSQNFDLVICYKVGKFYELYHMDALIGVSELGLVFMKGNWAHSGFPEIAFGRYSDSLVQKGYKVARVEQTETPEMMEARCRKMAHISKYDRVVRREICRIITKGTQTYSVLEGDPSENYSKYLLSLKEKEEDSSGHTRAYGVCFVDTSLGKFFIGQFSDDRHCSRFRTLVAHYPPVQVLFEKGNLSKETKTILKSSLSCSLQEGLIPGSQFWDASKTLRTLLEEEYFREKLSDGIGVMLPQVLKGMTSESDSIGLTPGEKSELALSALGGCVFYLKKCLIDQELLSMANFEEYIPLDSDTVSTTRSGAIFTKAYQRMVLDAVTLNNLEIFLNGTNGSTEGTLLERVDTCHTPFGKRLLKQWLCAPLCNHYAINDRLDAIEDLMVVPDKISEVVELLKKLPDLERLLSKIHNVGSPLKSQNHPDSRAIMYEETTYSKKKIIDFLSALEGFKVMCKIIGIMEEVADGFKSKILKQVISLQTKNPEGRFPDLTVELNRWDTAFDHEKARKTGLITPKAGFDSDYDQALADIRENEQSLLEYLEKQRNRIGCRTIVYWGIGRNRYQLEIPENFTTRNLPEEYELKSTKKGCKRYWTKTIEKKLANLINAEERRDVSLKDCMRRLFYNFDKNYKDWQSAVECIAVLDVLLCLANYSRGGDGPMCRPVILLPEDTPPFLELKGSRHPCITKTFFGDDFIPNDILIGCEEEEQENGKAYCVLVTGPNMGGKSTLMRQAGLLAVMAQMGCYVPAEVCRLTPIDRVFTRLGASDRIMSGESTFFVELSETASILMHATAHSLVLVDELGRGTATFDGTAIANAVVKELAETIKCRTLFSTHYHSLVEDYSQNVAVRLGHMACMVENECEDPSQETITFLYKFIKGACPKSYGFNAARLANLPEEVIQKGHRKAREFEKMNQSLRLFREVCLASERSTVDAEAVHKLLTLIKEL

B1: SMARCAD1, purified (enzyme, human, UniProt Q9H4L7 1-1026, looked up)
chain: MNLFNLDRFRFEKRNKIEEAPEATPQPSQPGPSSPISLSAEEENAEGEVSRANTPDSDITEKTEDSSVPETPDNERKASISYFKNQRGIQYIDLSSDSEDVVSPNCSNTVQEKTFNKDTVIIVSEPSEDEESQGLPTMARRNDDISELEDLSELEDLKDAKLQTLKELFPQRSDNDLLKLIESTSTMDGAIAAALLMFGDAGGGPRKRKLSSSSEPYEEDEFNDDQSIKKTRLDHGEESNESAESSSNWEKQESIVLKLQKEFPNFDKQELREVLKEHEWMYTEALESLKVFAEDQDMQYVSQSEVPNGKEVSSRSQNYPKNATKTKLKQKFSMKAQNGFNKKRKKNVFNPKRVVEDSEYDSGSDVGSSLDEDYSSGEEVMEDGYKGKILHFLQDASIGELTLIPQCSQKKAQKITELRPFNSWEALFTKMSKTNGLSEDLIWHCKTLIQERDVVIRLMNKCEDISNKLTKQVTMLTGNGGGWNIEQPSILNQSLSLKPYQKVGLNWLALVHKHGLNGILADEMGLGKTIQAIAFLAYLYQEGNNGPHLIVVPASTIDNWLREVNLWCPTLKVLCYYGSQEERKQIRFNIHSRYEDYNVIVTTYNCAISSSDDRSLFRRLKLNYAIFDEGHMLKNMGSIRYQHLMTINANNRLLLTGTPVQNNLLELMSLLNFVMPHMFSSSTSEIRRMFSSKTKSADEQSIYEKERIAHAKQIIKPFILRRVKEEVLKQLPPKKDRIELCAMSEKQEQLYLGLFNRLKKSINNLEKNTEMCNVMMQLRKMANHPLLHRQYYTAEKLKEMSQLMLKEPTHCEANPDLIFEDMEVMTDFELHVLCKQYRHINNFQLDMDLILDSGKFRVLGCILSELKQKGDRVVLFSQFTMMLDILEVLLKHHQHRYLRLDGKTQISERIHLIDEFNTDMDIFVFLLSTKAGGLGINLTSANVVILHDIDCNPYNDKQAEDRCHRVGQTKEVLVIKLISQGTIEESMLKINQQKLKLEQDMTTVDEGDEGSMPADIATLLKTSMGL
notes: SMARCAD1, human, full length; source: Hi5 insect cells (baculovirus), purified (HisTrap HP, Superdex 200)
Consider B1, for which the binding result in assay [1] and in assay [2] was “binds” throughout.
